Measurements as given in article doi:10.1101/2020.12.03.409318 (bioRxiv, 2020).

Target: RBD-mFc (Sino Biologicals) (SARS-CoV-2, wild type (Wuhan-Hu-1 …, UniProt P0DTC2))
Test: BLI

B1: STE90-C11 Fab (Fab, V domains shown)
VH: QVQLVESGGGLVQPGGSLRLSCAASGLTVSSNYMSWVRQAPGKGLEWVSVIYSGGSTYYADSVKGRFTISRDDSKNTLYLQMNSLRAEDTAVYYCARDVADAFDIWGQGTMVTVSS
VL: DIVMTQSPSFLSASVGDRVTITCRASQGISSYLAWYQQKPGKAPKLLIYAASTLQSGVPSRFSGSGSGTEFTLTISSLQPEDFATYYCQQLNSYPPFTFGPGTKVDIK
Kd: 8.1 nM
